According to US20090068103, “APTAMERS LABELED WITH 68GA” (published 2009):

B1: TTA5 (ssRNA)
RNA: TAGGGAGGACGCGUCGCCGUAAUGGAUGUUUUGCUCCCUG
modifications: 5'-(aminomodifier C2 dT)-mA mGmGmG mAmGG mAfCmG-(CH2CH2O)6-fCGfU fCGfC fCGfU mAmAfU mGmGmA fUmGfU fUfUfU mGfCfU fCfCfC fUmG (m=2'-OMe, f=2'-F); 3'-3'-T cap
B2: TTA4 (ssRNA)
RNA: GGGAGGACGCGUCGCCGUAAUGGAUGUUUUGCUCCC
modifications: mGmGmG mAmGG mAfCmG-(CH2CH2O)6-fCGfU fCGfC fCGfU mAmAfU mGmGmA fUmGfU fUfUfU mGfCfU fC(C6-NH2)CfC (m=2'-OMe, f=2'-F); 3'-3'-T cap
B3: TTA8 (ssRNA)
RNA: B2 RNA
modifications: mGmGmG mAmGmG mAfCrG-(CH2OCH2)6-fCGfU fCGfC fCGfU mAmAfU mGmGmA fUmGfU fUfUfU mGmCmU mCmCmC-(CH2)6NH2-3' (m=2'-OMe, f=2'-F, r=ribo)
B4: TTA7 (ssRNA)
RNA: B2 RNA
modifications: LGLGLG LALGmG mAfCrG-(CH2OCH2)6-fCGfU fCGfC fCGfU mAmAfU mGmGmA fUmGfU fUfUfU mGLCLU LCLCLC-(CH2)6NH2-3' (m=2'-OMe, f=2'-F, L prefix as printed, LNA inferred, r=ribo)
B5: TTA3 (ssRNA)
RNA: GGGAGGACGCGUCGCCGUAAUGGAUGUUUUGCUCCCUG
modifications: 5'-NH2-C6; mGmGmG mAmGG mAfCmG-(CH2CH2O)6-fCGfU fCGfC fCGfU mAmAfU mGmGmA fUmGfU fUfUfU mGfCfU fCfCfC UG (m=2'-OMe, f=2'-F); 3'-3'-T cap
B6: TTA6 (ssRNA)
RNA: B5 RNA
modifications: 5'-NH2-C6-O-SPO-O (PS linkage); mGmGmG mAmGG mAfCmG-(CH2CH2O)6-fCGfU fCGfC fCGfU mAmAfU mGmGmA fUmGfU fUfUfU mGfCfU fCfCfC fUmG (m=2'-OMe, f=2'-F); 3'-3'-T cap

Molecular target: Tenascin-C (TN-C) (Homo sapiens, UniProt P24821 P24821:23-2201)
Sequence (P24821 23-2201, one chain of several): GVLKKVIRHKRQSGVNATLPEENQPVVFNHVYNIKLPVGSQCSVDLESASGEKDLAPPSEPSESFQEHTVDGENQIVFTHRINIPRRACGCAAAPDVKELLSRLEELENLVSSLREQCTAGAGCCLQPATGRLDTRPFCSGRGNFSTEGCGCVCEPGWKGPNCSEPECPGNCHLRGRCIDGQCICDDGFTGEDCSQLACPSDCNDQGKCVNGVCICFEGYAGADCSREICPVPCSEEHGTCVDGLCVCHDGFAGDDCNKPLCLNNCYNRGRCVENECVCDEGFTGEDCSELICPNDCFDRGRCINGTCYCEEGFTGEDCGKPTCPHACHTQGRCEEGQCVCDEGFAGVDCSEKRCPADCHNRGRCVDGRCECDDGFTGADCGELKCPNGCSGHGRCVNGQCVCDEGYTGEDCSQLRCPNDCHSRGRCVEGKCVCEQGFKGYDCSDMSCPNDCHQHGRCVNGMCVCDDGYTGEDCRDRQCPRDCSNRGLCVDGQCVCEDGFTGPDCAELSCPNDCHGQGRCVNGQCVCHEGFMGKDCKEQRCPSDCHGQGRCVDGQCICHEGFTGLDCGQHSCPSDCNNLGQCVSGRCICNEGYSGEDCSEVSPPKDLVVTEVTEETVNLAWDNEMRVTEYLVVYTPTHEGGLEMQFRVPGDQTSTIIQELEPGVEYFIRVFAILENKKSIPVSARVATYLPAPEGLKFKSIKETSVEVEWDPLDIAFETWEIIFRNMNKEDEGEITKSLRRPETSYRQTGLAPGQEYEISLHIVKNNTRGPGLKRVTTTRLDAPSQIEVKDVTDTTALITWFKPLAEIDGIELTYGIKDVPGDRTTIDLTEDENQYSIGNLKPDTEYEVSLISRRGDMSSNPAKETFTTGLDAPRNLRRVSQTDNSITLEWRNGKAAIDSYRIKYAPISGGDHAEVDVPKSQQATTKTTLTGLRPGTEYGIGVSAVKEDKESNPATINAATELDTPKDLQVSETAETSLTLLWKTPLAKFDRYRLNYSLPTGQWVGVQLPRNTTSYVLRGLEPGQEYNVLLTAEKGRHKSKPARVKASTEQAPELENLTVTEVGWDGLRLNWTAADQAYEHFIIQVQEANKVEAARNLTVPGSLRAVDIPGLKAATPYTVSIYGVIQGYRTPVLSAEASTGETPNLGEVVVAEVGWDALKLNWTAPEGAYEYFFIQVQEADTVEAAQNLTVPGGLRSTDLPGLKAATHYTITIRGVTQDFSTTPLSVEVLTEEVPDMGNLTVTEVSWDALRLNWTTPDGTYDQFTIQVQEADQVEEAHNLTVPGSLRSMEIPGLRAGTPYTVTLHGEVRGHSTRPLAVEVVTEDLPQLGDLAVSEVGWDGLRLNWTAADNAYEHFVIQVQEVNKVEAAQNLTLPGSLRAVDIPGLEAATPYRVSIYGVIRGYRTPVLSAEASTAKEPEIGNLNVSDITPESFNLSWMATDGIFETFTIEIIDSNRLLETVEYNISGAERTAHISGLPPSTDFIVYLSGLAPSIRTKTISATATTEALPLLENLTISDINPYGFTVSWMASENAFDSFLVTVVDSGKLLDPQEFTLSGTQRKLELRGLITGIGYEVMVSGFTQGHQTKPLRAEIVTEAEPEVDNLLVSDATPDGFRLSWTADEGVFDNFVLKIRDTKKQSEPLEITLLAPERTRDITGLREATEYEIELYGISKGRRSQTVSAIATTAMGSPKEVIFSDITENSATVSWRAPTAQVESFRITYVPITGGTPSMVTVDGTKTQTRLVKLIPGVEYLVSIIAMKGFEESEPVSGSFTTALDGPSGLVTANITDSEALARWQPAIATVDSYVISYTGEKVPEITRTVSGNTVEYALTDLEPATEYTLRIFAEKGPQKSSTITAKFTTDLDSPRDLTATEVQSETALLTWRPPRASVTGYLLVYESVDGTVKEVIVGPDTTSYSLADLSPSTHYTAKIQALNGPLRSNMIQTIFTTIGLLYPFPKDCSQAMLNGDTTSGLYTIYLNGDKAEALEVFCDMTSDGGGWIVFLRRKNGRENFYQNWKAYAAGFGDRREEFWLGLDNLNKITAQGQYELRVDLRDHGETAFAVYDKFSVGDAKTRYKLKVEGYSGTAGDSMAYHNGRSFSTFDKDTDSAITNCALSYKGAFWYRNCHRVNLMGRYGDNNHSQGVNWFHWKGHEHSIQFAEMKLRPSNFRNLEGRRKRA
Experiment: competition; filter competition vs 1 nM 99mTc-TTA1-MAG2, 2 nM TN-C; TBSMC pH 7.4, 1 mM CaCl2, 1 mM MgCl2, 37 C
Settings: tags: none stated; chain copies: 6
Method: A competition filter binding assay was carried out in order to determine binding constants (EC₅₀). Samples of 2 nM human TN-C were incubated with 1 nM ^99mTc-TTA1-MAG₂ in TBSMC buffer (20 mM Tris, pH 7.4; 137 mM NaCl; 1 mM CaCl₂; 1 mM MgCl₂) and the binding competed with varying concentrations of unlabeled aptamer (see pipetting scheme in FIG. 9.1). Incubation was carried out at 37° C. for 15 min. Subsequently, the solutions were pipetted on a Minifold Device equipped with a supported nitrocellulose membrane and Whatman filter paper and were washed with buffer using vacuum. Residual radioactivity on the filter due to tenascin-C bound labeled aptamer was quantified using a Phosphorimager. EC₅₀ values were calculated using GraphPadPrism 3.02 (San Diego, Calif., USA) plotting one-side competition non-linear regression curves.

| Binder | EC50 [nM] |
| --- | --- |
| B1 | 39 |
| B2 | 20 |
| B3 | 14 |
| B4 | 2 |
| B5 | 19 |
| B6 | 14 |
